Results: patent US7727739B2, “Methods for measuring enzyme activity” (GE Healthcare UK Limited, priority 2002, dated 2010)
Non-standard residues stand in square brackets, D forms with d. Residues, ends and D or L forms follow the SMILES beside them. No end group written: not given here. *: point of attachment. X1 = 6‑(9-oxo-9H-acridin-10-yl)hexanoyl, O=C(CCCCCn1c2ccccc2c(=O)c2ccccc21)*; Sta = CC(C)C[C@H](N)[C@@H](O)CC(=O)O; Phe(NO2) = nitro-phenylalanine; Isovaleryl = CC(C)CC(=O)*; Nva = CCC[C@H](N)C(=O)O

Columns and labels:
[1] = Fluorescence lifetimes stated for labels and typical substrates; type: physicochemical; conditions: for lifetime of fluorescent label: free label; for lifetime of typical substrate: intact substrate, products 14 nano seconds
[2] = Fluorescence lifetime of labelled substrate in protease assay buffers; type: physicochemical
Experimental: A no enzyme control (NEC) having 10 μl of buffer in place of enzyme was used. […] Since the lifetimes of substrate (10.3 ns) and product (13.8 ns) are different it was possible to monitor the appearance of product and disappearance of the substrate, the results are shown in FIG. 2.
A no enzyme control (NEC) having 10 μl of buffer in place of enzyme was used. […] Since the lifetimes of the substrate (11.5 ns) and product (14.5 ns) in Tris buffer are different it was possible to monitor the appearance of product and disappearance of the substrate, the results are shown in FIG. 3.
A no enzyme control (NEC) having 100 μl of buffer in place of enzyme was included.

[3] = tested on: T1, 6-(9-oxo-9H-acridin-10-yl) hexanoyl-Ala-Ala-Phe-Phe-Ala-Ala-Tyr [AAFFAAY]
T1 sequence: AAFFAAY

[4] = tested on: T2, 6-(9-oxo-9H-acridin-10-yl) hexanoic acid-Arg-Pro-Lys-Pro-Val-Glu-Nva-Trp-Arg-Lys-NH2
T2 sequence: RPKPVEXWRK

[5] = Fluorescence lifetime of labelled peptides by time-correlated single photon counting; type: physicochemical; conditions: 100 nM in TNC-T buffer pH7.5; excited at 405 nm, detection at 450 nm
Experimental: The lifetime of this solution was determined (2 ml volume in a cuvette) by a time-correlated single photon counting technique (Edinburgh Analytical Instruments FL900CDT spectrometer). Samples were excited at 405 nm using a laser diode, detection being at 450 nm.
The labelled peptide (6-(9-oxo-9H-acridin-10-yl) hexanoic acid- RPKPVENvaWRK) (SEQ ID NO:3) was also diluted to 100 nM in TNC-T buffer and the lifetime was similarly recorded.

[6] = target: bovine kidney cathepsin D (bovine) (UniProt P80209); assay: cell-based or functional assay
pepsin [7] = assay: cell-based or functional assay
[8] = tested on: T3, 6-(9-oxo-9H-acridin-10-yl) hexanoyl-CHLDIIW
T3 sequence: CHLDIIW

pepsin [9] = target: pepsin (Homo sapiens, UniProt P0DJD7); assay: Inhibition of pepsin activity, fluorescence lifetime protease assay; type: biochemical; conditions: pepsin 0.5 ng; 0.1M citrate buffer pH3.6; FIG. 8; read-out: apparent IC50, pepsin digestion of the peptide substrate
Experimental: After incubation at ambient temperature, the fluorescence intensity and lifetime were recorded. Deconvolution using a non-linear least-squares analysis algorithm gave the fluorescence lifetimes.

[10] = target: T4, 6-(9-oxo-9H-acridin-10-yl) hexanoic acid-AAFFAAF-nitro (not fully specified)
T4 chain: AAFFAAF

Chain of pepsin (Homo sapiens, UniProt P0DJD7) (P0DJD7 63-388): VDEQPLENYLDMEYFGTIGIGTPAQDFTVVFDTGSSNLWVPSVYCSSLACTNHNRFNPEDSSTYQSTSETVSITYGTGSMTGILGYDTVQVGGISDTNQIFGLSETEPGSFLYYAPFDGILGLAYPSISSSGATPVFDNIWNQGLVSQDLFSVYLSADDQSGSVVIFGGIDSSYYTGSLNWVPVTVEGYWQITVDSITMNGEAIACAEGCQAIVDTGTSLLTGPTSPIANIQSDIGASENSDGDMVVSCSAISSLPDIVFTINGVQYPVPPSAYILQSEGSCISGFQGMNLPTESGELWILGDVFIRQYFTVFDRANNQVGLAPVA
Chain of bovine kidney cathepsin D (bovine) (P80209 45-390 limits assumed): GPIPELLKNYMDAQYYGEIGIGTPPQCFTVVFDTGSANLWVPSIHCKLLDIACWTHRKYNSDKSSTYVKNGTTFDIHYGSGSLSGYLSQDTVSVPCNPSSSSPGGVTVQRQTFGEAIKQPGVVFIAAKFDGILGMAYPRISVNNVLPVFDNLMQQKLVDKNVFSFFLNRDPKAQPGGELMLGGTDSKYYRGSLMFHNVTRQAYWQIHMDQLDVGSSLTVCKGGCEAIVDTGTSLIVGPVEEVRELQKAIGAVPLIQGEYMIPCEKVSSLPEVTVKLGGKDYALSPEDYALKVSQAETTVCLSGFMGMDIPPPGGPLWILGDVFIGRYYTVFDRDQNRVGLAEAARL

CC(=O)Nc1ccc2c(c1)c(=O)c1ccccc1n2CCCCCC(=O)O [6-(2-(acetamido)-9-oxo-9H-acridin-10-yl) hexanoic acid]
lifetime of fluorescent label [1]: 17 ns

6-(9-oxo-9H-acridin-10-yl) hexanoyl-Ala-Ala-Phe-Phe-Ala-Ala-Tyr (X1-AAFFAAY) [acridone-labelled protease substrate peptide]
fluorescence lifetime of substrate ([2]; 50 mM Tris buffer, pH7.8, 10 mM CaCl2): 11.5 ns | fluorescence lifetime of substrate ([2]; 0.1M citrate buffer, pH3.6, 0.005% Tween-20): 10.3 ns | lifetime of typical substrate [1]: 10 nano seconds

chymotrypsin
protease digestion of labelled substrate (fluorescence lifetime) [3]: it was possible to monitor the appearance of product and disappearance of the substrate

6-(9-oxo-9H-acridin-10-yl) hexanoic acid- AAFFAAF-nitro (X1-AAFFAA[Phe(NO2)]; not fully specified) [acridone-labelled nitro-phenylalanine peptide, thermolysin substrate]
fluorescence lifetime of substrate ([2]; PBS buffer, pH7, stretched exponential analysis): 2.5 ns

Matrix Metalloproteinase 3
protease digestion of labelled substrate (fluorescence lifetime) [4]: enzyme-dependant appearance of the product (14 ns lifetime species) and disappearance of the substrate (10 ns lifetime species)

pepsin
protease digestion of labelled substrate (fluorescence lifetime) [3]: it was possible to monitor the appearance of product and disappearance of the substrate

6-(9-oxo-9H-acridin-10-yl) hexanoyl- CHLDIIW (X1-CHLDIIW) [acridone-labelled Asp-n protease substrate]
lifetime of typical substrate [1]: 10 nano seconds

6-(9-oxo-9H-acridin-10-yl) hexanoic acid- RPKPVE (Arg-Pro-Lys-Pro-Val-Glu) (X1-RPKPVE) [acridone-labelled peptide without tryptophan]
Lifetime (ns) [5]: 13.9 ns

O=C(O)CCCCCn1c2ccccc2c(=O)c2ccccc21 [6-(9-oxo-9H-acridin-10-yl) hexanoic acid]
lifetime of fluorescent label [1]: 14 ns

Pepstatin A (peptide)
cathepsin D enzyme activity at 12 nM pepstatin A against no inhibitor [6]: 5 fold | inhibition of pepsin digestion of the labelled peptide substrate (fluorescence lifetime), apparent IC50 (pepsin [7]): 0.88 nM

O=C(O)CCCCCn1c2ccccc2c(=O)c2cc(Br)ccc21 [6-(2-bromo-9-oxo-9H-acridin-10-yl) hexanoic acid]
lifetime of fluorescent label [1]: 8 ns

6-(9-oxo-9H-acridin-10-yl) hexanoic acid- Arg-Pro-Lys-Pro-Val-Glu-Nva-Trp-Arg-Lys-NH2 (X1-RPKPVE[Nva]WRK-NH2; SMILES CCC[C@H](NC(=O)[C@H](CCC(=O)O)NC(=O)[C@@H](NC(=O)[C@@H]1CCCN1C(=O)[C@H](CCCCN)NC(=O)[C@@H]1CCCN1C(=O)[C@H](CCCNC(=N)N)NC(=O)CCCCCn1c2ccccc2c(=O)c2ccccc21)C(C)C)C(=O)N[C@@H](Cc1c[nH]c2ccccc12)C(=O)N[C@@H](CCCNC(=N)N)C(=O)N[C@@H](CCCCN)C(N)=O) [acridone-labelled MMP-3 substrate peptide]
fluorescence lifetime of substrate ([2]; 50 mM Tris buffer pH 7.5, MMP-3 assay, FIG. 6): 10 ns | lifetime of typical substrate [1]: 10 nano seconds | Lifetime (ns) [5]: 12.6 ns

Asp-n
protease digestion of labelled substrate (fluorescence intensity and lifetime) [8]: illustrates the digestion of 6-(9-oxo-9H-acridin-10-yl) hexanoyl -CHLDIIW (SEQ ID NO:2) with Asp-n

CC(C)CC(=O)N[C@H](C(=O)N[C@H](C(=O)N[C@@H](CC(C)C)[C@@H](O)CC(=O)N[C@@H](C)C(=O)N[C@@H](CC(C)C)[C@@H](O)CC(=O)O)C(C)C)C(C)C [Pepstatin A] (Isovaleryl-VV[Sta]A[Sta]-OH)
IC50 (pepsin [9]): 0.88 nM

O=C(O)CCCCCNC(=O)c1cccc2c(=O)c3ccccc3[nH]c12 [6-(9-oxo-9H-acridin-4-carboxamido) hexanoic acid]
lifetime of fluorescent label [1]: 4 ns

B1: thermolysin (protein)
chain: ITGTSTVGVGRGVLGDQKNINTTYSTYYYLQDNTRGNGIFTYDAKYRTTLPGSLWADADNQFFASYDAPAVDAHYYAGVTYDYYKNVHNRLSYDGNNAAIRSSVHYSQGYNNAFWNGSQMVYGDGDGQTFIPLSGGIDVVAHELTHAVTDYTAGLIYQNESGAINEAISDIFGTLVEFYANKNPDWEIGEDVYTPGISGDSLRSMSDPAKYGDPDHYSKRYTGTQDNGGVHINSGIINKAAYLISQGGTHYGVSVVGIGRDKLGKIFYRALTQYLTPTSNFSQLRAAAVQSATDLYGSTSQEVASVKQAFDAVGVK
protease digestion of labelled substrate (fluorescence lifetime) [10]: it was possible to monitor the appearance of product and disappearance of the substrate
